Values quoted from earlier work, collected in article PMC6136348, “In the quest for new targets for pathogen eradication: the adenylosuccinate synthetase from the bacterium Helicobacter pylori” (Journal of Enzyme Inhibition and Medicinal Chemistry, 2018).

Target: Adenylosuccinate synthetase (Escherichia coli) (UniProt P0A7D4)

Adenylosuccinate synthetase, sequence (P0A7D4 2-432): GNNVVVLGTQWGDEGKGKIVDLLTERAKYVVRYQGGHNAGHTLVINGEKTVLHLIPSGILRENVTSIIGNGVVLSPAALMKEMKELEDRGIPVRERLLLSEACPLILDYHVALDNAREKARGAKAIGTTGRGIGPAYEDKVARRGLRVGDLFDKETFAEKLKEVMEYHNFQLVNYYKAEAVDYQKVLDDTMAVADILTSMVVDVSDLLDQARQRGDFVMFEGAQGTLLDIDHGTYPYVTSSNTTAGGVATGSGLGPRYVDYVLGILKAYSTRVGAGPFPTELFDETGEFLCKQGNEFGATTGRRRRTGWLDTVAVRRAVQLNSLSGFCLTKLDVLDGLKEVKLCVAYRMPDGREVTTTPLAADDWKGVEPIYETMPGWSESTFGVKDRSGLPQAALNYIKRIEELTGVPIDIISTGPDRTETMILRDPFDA

Kd: 10 µM
Substance: Adenylosuccinate synthetase (from UniProt P0A7D4)
